Consider 1 molecule from US20120208237A1 (Novo Nordisk, published 2012).

In the assay the target is T1, KIR2DS3 expressed on transfected cells (human, UniProt Q14952 22-304).
T1 construct: whole, on cells
The assay is described as follows: flow cytometry on cells transfected with KIR2DS3 (fifth column; its head is printed KIRDLS1 a second time, the legend's order gives KIR2DS3). Here is the method:
The KIR2DL cross-reactive mAbs were then tested for their ability to react with KIR at the surface of cells by flow cytometry. Briefly, the binding of the human anti-KIR mAbs was tested by incubating them with various cell lines stably over-expressing KIRs (e.g., YTS-2DL1, BWZ-KIR2DL2 and BWZ-KIR2DS4) or not expressing KIRs (e.g., YTS and BWZ). Briefly, cells were incubated with various concentrations (typically 0-50 μg/ml) of human anti-KIR mAb1-7F9 in DMEM-medium containing 2% FCS. After incubation, cells were washed and incubated with APC-conjugated secondary antibodies specific for human IgG. All incubations and washing steps were performed at 0-4° C. Subsequently, cells were washed, resuspended in PBS, and analyzed by flow cytometry on a FACScalibur or a FACScanto (both from Beckton Dickinson).
(In general: Flow cytometry measures light scatter and fluorescence of single cells or particles in a stream.)

T1 sequence (Q14952 22-304): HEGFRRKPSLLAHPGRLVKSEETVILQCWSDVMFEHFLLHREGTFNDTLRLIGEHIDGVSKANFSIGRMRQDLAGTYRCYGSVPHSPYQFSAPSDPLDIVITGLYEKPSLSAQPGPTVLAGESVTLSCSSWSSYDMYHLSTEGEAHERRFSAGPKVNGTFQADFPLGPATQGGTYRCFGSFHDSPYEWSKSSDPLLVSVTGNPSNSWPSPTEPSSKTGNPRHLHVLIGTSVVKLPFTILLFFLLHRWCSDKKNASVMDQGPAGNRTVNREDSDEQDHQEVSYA

B1: human monoclonal antibody 1-7F9 (antibody, human IgG4, kappa, V domains shown)
VH: QVQLVQSGAEVKKPGSSVKVSCKASGGTFSFYAISWVRQAPGQGLEWMGGFIPIFGAANYAQKFQGRVTITADESTSTAYMELSSLRSDDTAVYYCARIPSGSYYYDYDMDVWGQGTTVTVSS
VL: EIVLTQSPVTLSLSPGERATLSCRASQSVSSYLAWYQQKPGQAPRLLIYDASNRATGIPARFSGSGSGTDFTLTISSLEPEDFAVYYCQQRSNWMYTFGQGTKLEIKR
notes: also called HuKIR 1-7F9; HuKIR1-7F9
For B1, the binding result is “no binding (tested: 1 µg/ml)”.
